Data on 1 molecule can be found in patent publication US20260240998A1 (JICHI MEDICAL UNIVERSITY, published 2026).

The assay deals with T1, B-cell maturation antigen (BCMA) (human, UniProt Q02223 1-184).
T1 sequence (looked up): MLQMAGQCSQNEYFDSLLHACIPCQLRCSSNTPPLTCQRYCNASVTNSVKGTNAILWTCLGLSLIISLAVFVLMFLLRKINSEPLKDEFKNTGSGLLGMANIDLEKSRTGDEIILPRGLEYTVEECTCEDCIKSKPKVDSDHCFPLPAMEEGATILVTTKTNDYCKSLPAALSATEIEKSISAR
Kind of assay: cell-based or functional assay.

B1: BCMA-CAR (L20H), LH construct derived from anti-BCMA antibody 1 with a 20 amino acid linker (other)
chain: DIVLTQSPASLAVSLGQRATISCRASKSVSTSGYSYMHWYQQKPGQPPRLLIYLASNLESGVPARFSGSGSGTDFTLNIHPVEEEDAATYYCQHSRELPFTFGSGTKLEIKGGGGSGGGGSGGGGSGGGGSEVQLQQSGPELVKPGASVKMSCKASGYTFTNYIIHWVKQKPGQGLEWIGYIIPYNDGSKYNEKFKGKATLTSDKSSSTAYMELSSLTSEDSAVYYCARLTFSYDSYAMDYWGQGTSVTVSSATGAAAIEVMYPPPYLDNEKSNGTIIHVKGKHLCPSPLFPGPSKPFWVLVVVGGVLACYSLLVTVAFIIFWVRSKRSRLLHSDYMNMTPRRPGPTRKHYQPYAPPRDFAAYRSRVKFSRSADAPAYQQGQNQLYNELNLGRREEYDVLDKRRGRDPEMGGKPRRKNPQEGLYNELQKDKMAEAYSEIGMKGERRRGKGHDGLYQGLSTATKDTYDALHMQALPPR
For the molecule B1, the “luminescence intensity ratio of the U266 co-culture group to the control group (transduced cells only)” value was found to be 62.8 times.
